Laboratory results taken from patent US20140371148A1 (AMYLIN PHARMACEUTICALS, published 2014).
Starred links: 1 amine or outer side, 2 acyl side, 3 side chain; linkers in the order of their positions; H or OH if unused. Groups on a side chain read outwards from the residue. No end group written: not given here. 2‑(S)‑cyano pyrrolidyl = 2-(S)-cyano pyrrolidyl group; γGlu = O=C(O)[C@H](CCC(=O)[*:2])N[*:1]; AEEA = NCCOCCOCC(=O)O

T1: endogenously expressed GLP-1 receptor of thyroid c-cell carcinoma line 6-23 (UniProt P32301 22-463)
T1 sequence (looked up): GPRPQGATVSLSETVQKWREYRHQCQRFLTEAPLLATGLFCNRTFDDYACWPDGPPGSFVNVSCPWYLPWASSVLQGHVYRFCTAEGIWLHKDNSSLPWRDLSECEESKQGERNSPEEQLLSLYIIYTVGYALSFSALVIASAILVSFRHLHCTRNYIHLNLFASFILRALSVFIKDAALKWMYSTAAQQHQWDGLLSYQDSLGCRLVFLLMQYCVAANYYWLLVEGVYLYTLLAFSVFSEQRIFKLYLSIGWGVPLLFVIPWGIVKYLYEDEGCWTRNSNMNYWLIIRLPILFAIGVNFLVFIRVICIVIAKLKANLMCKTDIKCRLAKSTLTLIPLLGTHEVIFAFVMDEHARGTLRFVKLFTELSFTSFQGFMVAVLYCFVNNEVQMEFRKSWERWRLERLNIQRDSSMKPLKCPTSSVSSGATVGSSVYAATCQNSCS


molecular target: T1, endogenously expressed GLP-1 receptor …; test: cell-based or functional assay

Row | Binder | GLP Cyclase EC50 [µM]
1 | HAEGTFTSDVSSYLEGQAAKEFIAWLVKGRG (lisinopril joined at the C-terminus through linker type C9 of FIG. 2) [5547] | 0.0004

molecular target: Recombinant DPP-IV; test: cell-based or functional assay

Row | Binder | DPP-IV IC50 [µM]
2 | YAEGTFISDYSIAMDKIHQQDFVNWLLAQK (C-terminus extended with Ado-Ado-Lys-N-ε-(2-(S)-cyano pyrrolidyl)) [GIP(1-30)-Ado-Ado-Lys-N-ε-(2-(S)-cyano pyrrolidyl)] | 0.114
3 | YAEGTFISDYSIAMDKIHQQDFVNWLLAQK([AEEA-γGlu-2‑(S)‑cyano pyrrolidyl]) [Lys^30 N-ε-(Ado-(γ-L-Glu-2-(S)-cyano pyrrolidyl)) GIP(1-30)] | 0.049
4 | YAEGTFISDYSIAMDKIHQQDFVNWLLAQK (C-terminus extended with Ado-Lys-N-ε-(2-(S)-cyano pyrrolidyl)) [GIP(1-30)-Ado-Lys-N-ε-(2-(S)-cyano pyrrolidyl)] | 0.098

Other lines, results leading:

Row | DPP-IV IC50 [µM] | Binder
5 | 0.064 | YAEGTFISDYSIAMDKIHQQDFVNWLLAQK (N-terminus acylated with γ-L-Glu-(2-(S)-cyano pyrrolidyl)-Ado-Ado) [N-(γ-L-Glu-2-(S)-cyano pyrrolidyl)-Ado-Ado) GIP(1-30)]
6 | 0.109 | YAEGTFISDYSIALDKIHQQDFVNWLLAQK-{AEEA-Lys(N-ε-(2-(S)-cyano pyrrolidyl))} [[Leu^14] GIP(1-30)-Ado-Lys-N-ε-(2-(S)-cyano pyrrolidyl)]
